B1: hNEU1-TMS2 (domain or fragment)
chain: not shown
modifications: 15N-labeled
notes: human NEU1, residues R305-R341, holding the transmembrane segment TM2; Embedded in DPC micelles for NMR; also called hNEU1/TMS2 fragment; hNEU1 TM2 segment; source: bacterial expression and purification as described in Maurice et al. (2016)
B2: mutIntPepR (peptide)
peptide: GSMWHHHHHHGGELVDPVVVAIAVVTSSIIAFFSN
notes: holds the His6; not NEU1; human NEU1, TM2 segment with four point mutations; The gene construct had GB1 as leading fusion protein followed by a thrombin cleavage site; the printed peptide begins with GS, so GB1 was probably cleaved off (surmised); Unlabeled; embedded in DPC micelles; also called recombinant version of the four-point mutated peptide IntPep; source: continuous exchange cell-free …

What was measured:
[1] = biological target: the molecule itself; experiment: NMR titration; homodimerisation: 0.4 mM 15N-labeled hNEU1-TMS2 in DPC micelles, D/P 50 titrated with DPC to 110 (further samples to D/P 200); pH 6.5, 20 mM sodium phosphate, 313 K, 800 MHz, 1H/15N-TROSY
[2] = biological target: B1; experiment: NMR titration; heterodimerisation: 0.3 mM 15N-labeled hNEU1-TMS2 in DPC micelles (D/P 120) titrated with unlabeled recombinant peptide in micelles up to N/I of 1 (D/P near 100); pH 6.5, 20 mM sodium phosphate, 313 K, 1H/15N-TROSY; conditions: both partners purified

B1
stoichiometry N [1]: 2

B2
binding result [2]: binds
